Data as given in patent US20240010747A1, “ANTI-MRP4 (ENCODED BY ABCC4 GENE) ANTIBODIES AND USES THEREOF” (Kenjockety Biotechnology, Inc., priority 2020, published 2024).

T1: human ABCC4 (Homo sapiens, UniProt O15439)
T1 construct: expressed in transfected cells
T1 sequence (O15439 1-1325): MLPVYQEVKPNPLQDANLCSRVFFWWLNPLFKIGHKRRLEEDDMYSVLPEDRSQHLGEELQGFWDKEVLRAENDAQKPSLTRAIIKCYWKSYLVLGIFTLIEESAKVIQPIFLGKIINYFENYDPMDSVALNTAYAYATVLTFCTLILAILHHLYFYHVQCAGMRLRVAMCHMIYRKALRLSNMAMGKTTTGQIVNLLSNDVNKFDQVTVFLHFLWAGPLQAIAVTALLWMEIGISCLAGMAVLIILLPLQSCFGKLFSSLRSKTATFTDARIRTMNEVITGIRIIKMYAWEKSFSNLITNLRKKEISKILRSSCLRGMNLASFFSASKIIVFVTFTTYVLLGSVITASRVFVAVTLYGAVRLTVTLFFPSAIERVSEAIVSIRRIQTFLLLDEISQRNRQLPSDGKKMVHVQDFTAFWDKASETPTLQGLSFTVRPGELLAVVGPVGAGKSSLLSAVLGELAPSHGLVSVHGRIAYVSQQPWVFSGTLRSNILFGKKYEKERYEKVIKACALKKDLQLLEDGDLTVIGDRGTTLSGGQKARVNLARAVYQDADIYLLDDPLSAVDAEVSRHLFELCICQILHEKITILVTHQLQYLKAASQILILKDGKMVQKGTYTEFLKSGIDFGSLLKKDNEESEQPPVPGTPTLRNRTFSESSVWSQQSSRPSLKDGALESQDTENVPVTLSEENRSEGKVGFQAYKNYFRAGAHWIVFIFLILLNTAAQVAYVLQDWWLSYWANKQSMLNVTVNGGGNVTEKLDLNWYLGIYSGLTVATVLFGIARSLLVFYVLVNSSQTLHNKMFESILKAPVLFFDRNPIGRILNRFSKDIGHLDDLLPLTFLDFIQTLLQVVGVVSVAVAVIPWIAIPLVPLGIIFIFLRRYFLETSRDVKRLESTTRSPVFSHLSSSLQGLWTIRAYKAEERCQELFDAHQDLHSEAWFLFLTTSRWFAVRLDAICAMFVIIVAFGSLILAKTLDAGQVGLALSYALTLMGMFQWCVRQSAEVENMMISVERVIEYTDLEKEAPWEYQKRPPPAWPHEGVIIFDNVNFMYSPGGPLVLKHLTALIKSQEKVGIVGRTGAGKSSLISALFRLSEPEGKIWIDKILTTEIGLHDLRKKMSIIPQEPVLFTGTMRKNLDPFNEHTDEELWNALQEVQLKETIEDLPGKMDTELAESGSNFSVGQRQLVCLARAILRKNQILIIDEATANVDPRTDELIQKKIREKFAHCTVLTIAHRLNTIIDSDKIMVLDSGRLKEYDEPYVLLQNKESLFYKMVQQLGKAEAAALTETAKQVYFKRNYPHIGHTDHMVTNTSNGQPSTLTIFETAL

T2: human ABCC4 (human, UniProt O15439 1-1325)
T2 construct: Expressed on murine C6 cells stably transfected with human ABCC4 cDNA with C-terminal FLAG tag; also called MRP4; Multidrug resistance protein 4; not shown: C-terminal fused FLAG tag
T2 sequence: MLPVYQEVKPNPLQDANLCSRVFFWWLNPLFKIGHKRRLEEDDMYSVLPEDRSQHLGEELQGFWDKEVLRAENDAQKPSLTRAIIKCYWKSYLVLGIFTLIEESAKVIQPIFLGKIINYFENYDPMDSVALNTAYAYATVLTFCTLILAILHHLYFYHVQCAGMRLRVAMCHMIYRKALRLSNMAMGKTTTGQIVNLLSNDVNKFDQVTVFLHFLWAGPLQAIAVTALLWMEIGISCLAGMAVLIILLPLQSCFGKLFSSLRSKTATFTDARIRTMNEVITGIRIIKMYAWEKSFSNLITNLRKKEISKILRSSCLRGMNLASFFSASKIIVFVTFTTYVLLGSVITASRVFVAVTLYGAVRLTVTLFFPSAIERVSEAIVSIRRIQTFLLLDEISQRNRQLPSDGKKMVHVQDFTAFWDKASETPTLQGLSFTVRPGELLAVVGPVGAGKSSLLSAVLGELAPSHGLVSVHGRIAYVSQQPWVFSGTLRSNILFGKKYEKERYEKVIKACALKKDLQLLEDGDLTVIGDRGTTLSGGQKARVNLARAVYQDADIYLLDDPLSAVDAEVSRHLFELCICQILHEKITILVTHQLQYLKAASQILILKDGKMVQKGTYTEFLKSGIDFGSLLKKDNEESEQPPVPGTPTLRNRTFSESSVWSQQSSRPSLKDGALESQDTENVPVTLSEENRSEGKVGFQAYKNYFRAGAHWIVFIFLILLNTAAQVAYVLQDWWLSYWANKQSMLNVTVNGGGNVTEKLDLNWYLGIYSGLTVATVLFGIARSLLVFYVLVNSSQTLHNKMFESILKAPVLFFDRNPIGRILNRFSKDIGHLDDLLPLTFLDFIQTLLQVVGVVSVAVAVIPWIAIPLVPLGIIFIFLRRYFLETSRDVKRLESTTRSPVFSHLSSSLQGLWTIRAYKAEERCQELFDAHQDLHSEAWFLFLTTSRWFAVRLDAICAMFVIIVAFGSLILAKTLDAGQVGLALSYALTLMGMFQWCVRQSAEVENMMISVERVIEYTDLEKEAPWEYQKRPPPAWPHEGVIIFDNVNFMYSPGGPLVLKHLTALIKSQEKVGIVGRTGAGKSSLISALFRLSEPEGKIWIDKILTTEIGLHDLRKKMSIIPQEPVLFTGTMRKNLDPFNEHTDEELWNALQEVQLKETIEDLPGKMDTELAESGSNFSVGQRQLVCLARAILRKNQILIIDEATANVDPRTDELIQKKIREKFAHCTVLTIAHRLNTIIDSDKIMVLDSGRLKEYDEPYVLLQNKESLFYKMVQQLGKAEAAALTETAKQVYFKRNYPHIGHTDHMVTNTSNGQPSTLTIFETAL


Legend:
human ABCC4 [1] = biological target: T1, human ABCC4; assay: Flow cytometry (FACS) binding to C6 cells stably transfected to express human ABCC4 (different experiment, Table 4); details: for Human ABCC4 binding: C6 cells stably transfected to express human ABCC4, FACS, different experiment, Table 4
Summary of the method: (§1)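 Murine C6 cells stably expressing FLAG-tagged human or cynomolgus ABCC4 incubated 30 min on ice with antibodies, either 5 ug/mL or serially diluted from 100 ug/mL, in PBS+2% FBS+0.02% azide. Detection with PE anti-human IgG F(ab′)2 by flow cytometry; EC50 at half-maximal MFI; negative below background, positive >3× background.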

cynomolgus ABCC4 [2] = assay: Flow cytometry (FACS) binding to C6 cells stably transfected to express cynomolgus ABCC4 (different experiment, different C6.cC4 cell line, Table 4); parameters: key to Cynomolgus ABCC4 binding: Negative (−)=Rmax (MFI) below background level; Positive (+)=MFI>3× background level; details: for Cynomolgus ABCC4 binding: different C6.cC4 cell line, C6 cells stably transfected to express cynomolgus ABCC4, FACS, Table 4
Summary of the method: as §1

human ABCC4 [3] = biological target: T2, human ABCC4; assay: FACS, C6 cells stably expressing human ABCC4; + = MFI>3x background
Experimental: (§2) Antibody binding to cells was evaluated by flow cytometry. Murine C6 cells stably transfected to express human or cynomolgus ABCC4 were washed once in flow cytometry buffer (PBS+2% FBS+0.02% sodium azide), resuspended at 2×10\hat{ }6 cells/mL in flow cytometry buffer, and dispensed into 96-well microtiter plates at 0.1 mL/well. Recombinant antibodies were added to cells at 5 ug/mL for initial binding confirmation, or serially diluted from 100 ug/mL in flow cytometry buffer. After incubating cells on ice for 30 min, cells were washed twice with flow cytometry buffer. Bound antibody was detected with PE-labeled F(ab′)₂ fragment goat anti-human IgG (Jackson ImmunoResearch) and evaluated on an Attune N×T flow cytometer. EC50 is calculated to be the concentration of antibody that gives half maximal response.

human ABCC4 [4] = biological target: T1, human ABCC4; assay: Flow cytometry (FACS) binding to C6 cells stably transfected to express human ABCC4 (Table 3 study); details: C6 cells stably transfected to express human ABCC4, FACS; Table 3
Experimental: (§3) Binding titration of recombinant antibodies to ABCC4 transfectants was performed by serial dilution of antibodies from about 666 nM. Diluted antibody in flow cytometry buffer was incubated with cells on ice for 30 min. After 2 washes with flow cytometry buffer, bound antibody was detected with PE-labeled F(ab′)2 fragment goat anti-human IgG (Jackson ImmunoResearch) diluted 1:200 in flow cytometry buffer and incubated with cells for 20 min on ice. After 2 washes with flow cytometry buffer fluorescence was measured on an Attune N×T flow cytometer. Data were analyzed with GraphPad Prism 8.0 software to determine EC50's.
(§4) Human embryonic kidney HEK 293T cells and murine C6 (ATCC CCL-107) were transfected with human or cynomolgus ABCC4 cDNA with C-terminal fused FLAG tag in a pMONO-hygro vector with Lipofectamine 3000 (Invitrogen #L3000001). The cells were treated with 0.2 mg/ml and 0.5 mg/ml hygromycin respectively for about 2 weeks while cultivated in DMEM and 10% FBS with 0.2 mg/ml hygromycin and 0.5 mg/ml hygromycin, respectively. The cells were washed with PBS, and stained with […] of anti-FLAG-PE after fixing and permeablization. Clones expressing ABCC4 were single-cell sorted into 200 μl DMEM with 10% FBS using a BD Aria FACS machine and cultivated in 96 well plates using standard techniques in an incubator at 37° C. and 5% CO 2. Two weeks later clones expressing high levels of ABCC4 were screened and amplified.
as §2, with “2×10^6” for “2×10\hat{ }6”, “F(ab′)2” for “F(ab′)₂”
(§5) Table 3 lists the following characteristics of the rat anti-ABCC4 antibodies tested: binding to C6 cells stably transfected to express human ABCC4 measured by FACS and binding to C6 cells stably transfected to express cynomolgus ABCC4 measured by FACS. Negative (−) is defined as maximum response (Rmax(MFI)) below background level. Positive (+) is defined as MFI>1000.

cynomolgus ABCC4 [5] = assay: Flow cytometry (FACS) binding to C6 cells stably transfected to express cynomolgus ABCC4 (Table 3 study); parameters: key to Cynomolgus ABCC4 binding: Negative (−) is defined as maximum response (Rmax(MFI)) below background level; Positive (+) is defined as MFI>1000; details: C6 cells stably transfected to express cynomolgus ABCC4, FACS; Table 3
Experimental: as §3, §4
as §2, with “2×10^6” for “2×10\hat{ }6”, “F(ab′)2” for “F(ab′)₂”
as §5

Row | Human ABCC4 binding (human ABCC4 [1]) | binding to human ABCC4 expressed on cell surface (human ABCC4 [1]; Table 4 study, stated in words) | binding result (human ABCC4 [3]) | Human ABCC4 binding (human ABCC4 [4]) | Molecule | binding to cynomolgus ABCC4 expressed on cell surface (cynomolgus ABCC4 [2]; Table 4 study, stated in words) | Cynomolgus ABCC4 binding (cynomolgus ABCC4 [2]) | Cynomolgus ABCC4 binding (cynomolgus ABCC4 [5])
1 | + (Positive (+)=MFI>3× background level) | bind to both human and cynomolgus ABCC4 | binds |  | C4.1054 (antibody, V domains shown) VH: QVQLLQSGAALVKPGASVKMSCKPSGYTFTDYWVSWVKQSHGKSLEWIGEIYPNNGATNFNEKFKGKATLTVDKSTSTAYMELSRLTSEDSAIYYCPSRKYGYNWNFDYWGQGTMVTVSS VL: DIVLTQSPALAVSLGQRATISCRARQSVSISRYNLMHWYQQKPGQQPKVLIYRASNLASGIPARFSGSGSGTDFTLTIDPVQADDIATYYCQQSRDSPWTFGGGTKLELK | bind to both human and cynomolgus ABCC4 | + (Positive (+)=MFI>3× background level) | 
2 | + (Positive (+)=MFI>3× background level) |  |  | + (Positive (+) is defined as MFI>1000) | C4.884: anti-ABCC4 antibody raised in rats; VH SEQ ID NO: 1, VL SEQ ID NO: 124 (antibody, V domains shown) VH: EVQLVESGPGLVQPSQTLSLTCTVSGFSLTSNSVHWVRQPPGKGLEWIGAIWSGGSTDYNSALKSRLSISRDTSKSQVFLKMNSLQTEDTAIYFCTGLIFPYWGQGASVTVSS VL: DVVMTQTPSILSGTLGRSVSISCRSSQSLLDSDGTTYLYWFLQRPGQSPQRLIYLVSNLGSGVPNRFSGSGSGTDFTLKISGVEAEDLGVYYCMQATHVPFTFGSGTKLEIK |  | − | −
3 | + (Positive (+)=MFI>3× background level) |  |  | + (Positive (+) is defined as MFI>1000) | C4.1000: anti-ABCC4 antibody raised in rats; VH SEQ ID NO: 18, VL SEQ ID NO: 138 (antibody, V domains shown) VH: QVQLTESGPGLVQPSQTLSLTCTISGFSLTSYGVSWVRQPPGKGLEWIGAIWSGGGTNYDSALKSRLSISRDTSKSQVLLKMNSLQTEDTAMYFCASGDWFAYWGQGTLVTVSS VL: DIQMTQSPPSLSASLGDKVTITCQASQNINKYIAWFQQKPGKAPRLLIRYTSTLESGTPSRFSGSGSGRDYSFSISTVESEDIASYYCLQYVNLYTFGAGTKLELK |  | − | −
